Laboratory results as given in article PMC12439581 (mAbs, 2025).
Values joined by “and” are separate entries in the source; they are usually repeats but may differ in a detail not shown here. Identical values can stand only once.

How the values were obtained:
[1] = molecular target: T1, biotinylated α-elapitoxin-Dpp2d from Dendroaspis polylepis (Dendroaspis polylepis (black mamba), UniProt C0HJD7); assay: BLI; […]; association at pH 7.4, dissociation at pH 7.4; 1:1 global fit, […]; conditions: both partners purified
[2] = molecular target: T1, biotinylated α-elapitoxin-Dpp2d from …; assay: BLI; […]; association at pH 7.4, dissociation at pH 5.5; 1:1 global fit; conditions: both partners purified
[3] = molecular target: T2, biotinylated α-cobratoxin from Naja kaouthia (Naja kaouthia, biotin through amine coupling (NHS-PEG4-Biotin), sites not stated); assay: BLI; conditions: both partners purified
T2 chain: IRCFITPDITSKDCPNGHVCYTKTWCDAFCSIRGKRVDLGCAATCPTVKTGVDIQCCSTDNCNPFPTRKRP

[4] = molecular target: T3, biotinylated α-cobratoxin from Naja kaouthia (Naja kaouthia, UniProt P01391); assay: BLI; conditions: both partners purified
[5] = molecular target: T2, biotinylated α-cobratoxin from Naja …; assay: BLI; conditions: both partners purified
[6] = molecular target: T3, biotinylated α-cobratoxin from Naja …; assay: DELFIA (dissociation-enhanced lanthanide fluorescence immunoassay); conditions: one partner purified

T1 sequence (C0HJD7 whole entry): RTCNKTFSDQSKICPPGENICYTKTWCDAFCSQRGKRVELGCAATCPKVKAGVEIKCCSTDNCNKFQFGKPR

B1: A01 Fab (Fab, V domains shown)
VH: QVQLVQSGAEVKKPGSSVKVSCKASGGTFSSYAISWVRQAPGQGLEWMGGIIPIFGTANYAQKFQGRVTITADESTSTAYMELRSLRSDDTAVYYCARDNLGYCSGGSCYSDYYYYYMDVWGQGTLVTVSS
VL: SYELTQPPSVSVAPGRTATITCEGDNIGQQIVHWYQQKPGQAPVAVISSDSDRPSGIPERFSGSNSGNTATLTISRVEAGDEADYYCQVWDSGSDHVVFGGGTKVTVL
- kon [1]: 84000 M⁻¹ s⁻¹
- koff [2]: 0.00295 s⁻¹
- kon [3]: 44000 M⁻¹ s⁻¹

B2: A12 Fab (Fab, V domains shown)
VH: QVQLVQSGAEVKKPGSSVKVSCKASGGTFSSYAISWVRQAPGQGLEWMGGIIPIFGTANYAQKFQGRVTITADESTSTAYMELRSLRSDDTAVYYCARDNLGYCSGGSCYSDYYYYYMDVWGQGTLVTVSS
VL: NFMLTQPHSVSESPGKTVTFSCTRSSGRIVSDYVHWYQQRPGSAPTTVIYEDNQRPSGVPDRFSGSIDSSSNSASLTISGLKTEDEADYYCQSYDSSNAYVVFGGGTKVTVL
- binding result [4]: binds

B3: A04 Fab (Fab, V domains shown)
VH: QVQLVQSGAEVKKPGSSVKVSCKASGGTFSSYAISWVRQAPGQGLEWMGGIIPIFGTANYAQKFQGRVTITADESTSTAYMELRSLRSDDTAVYYCARDNLGYCSGGSCYSDYYYYYMDVWGQGTLVTVSS
VL: SYELTQPPSMSVAPGQTARITCGGDYIGGESVHWYQQKPGRAPVAVVYDDTHRPSGIPERFSGANSGNTATLTISKVEAGDEADYYCQVWDVSSDHVVFGGGTKLTVL
- Kd [1]: 0.6 ± 0.4 nM
- koff [1]: 9e-05 s⁻¹
- kon [1]: 161000 M⁻¹ s⁻¹
- koff [2]: 0.00024 s⁻¹
- Kd [3]: 15.3 ± 14 nM
- kon [3]: 62000 M⁻¹ s⁻¹

B4: D11_Y49S scFv (scFv, V domains shown)
VH: QVQLVQSGAEVKKPGSSVKVSCKASGGTFSSYAISWVRQAPGQGLEWMGGIIPIFGTANYAQKFQGRVTITADESTSTAYMELRSLRSDDTAVYYCARDNLGYCSGGSCYSDYYYYYMDVWGQGTLVTVSS
VL: NFMLTQPRSVSESPGKTVTISCTRSSGSIGSDYVHWYQQRPGSSPTTVISEDNQRPSGVPDRFSGSIDSSSNSASLTISGLKTEDEADYYCQSYDRSNHEVVFGGGTKLTVL
notes: source: E. coli BL21(DE3)
- Kd [5]: 48.8 nM
- koff [5]: 0.00195 s⁻¹ and 0.00416 s⁻¹
- kon [5]: 40000 M⁻¹ s⁻¹

B5: D11_E50A scFv (scFv, V domains shown)
VH: QVQLVQSGAEVKKPGSSVKVSCKASGGTFSSYAISWVRQAPGQGLEWMGGIIPIFGTANYAQKFQGRVTITADESTSTAYMELRSLRSDDTAVYYCARDNLGYCSGGSCYSDYYYYYMDVWGQGTLVTVSS
VL: NFMLTQPRSVSESPGKTVTISCTRSSGSIGSDYVHWYQQRPGSSPTTVIYADNQRPSGVPDRFSGSIDSSSNSASLTISGLKTEDEADYYCQSYDRSNHEVVFGGGTKLTVL
notes: source: E. coli BL21(DE3)
- Kd [5]: 158 nM
- koff [5]: 0.00469 s⁻¹ and 0.0134 s⁻¹
- kon [5]: 29700 M⁻¹ s⁻¹

B6: 368_01_C05 Fab with the CDR-L3 glycosylation site at Asn95 removed (Fab, V domains shown)
VH: QVQLVQSGAEVKKPGSSVKVSCKASGGTFSSYAISWVRQAPGQGLEWMGGIIPIFGTANYAQKFQGRVTITADESTSTAYMELRSLRSDDTAVYYCARDNLGYCSGGSCYSDYYYYYMDVWGQGTLVTVSS
VL: NFMLTQPHSVSESPGKTVTISCTRSSGSIASTYVHWYQQRPGSAPTTVIYEDNQRPSGVPDRFSGSIDSSSNSASLTISGLKTEDEADYYCQSYDSSSGSVVFGGGTKLTVL
notes: also called parent mAb; parental mAb
- binding result [4]: binds

B7: A01 scFv with His34 (CDR-L1) substituted to alanine (scFv, V domains shown)
VH: QVQLVQSGAEVKKPGSSVKVSCKASGGTFSSYAISWVRQAPGQGLEWMGGIIPIFGTANYAQKFQGRVTITADESTSTAYMELRSLRSDDTAVYYCARDNLGYCSGGSCYSDYYYYYMDVWGQGTLVTVSS
VL: SYELTQPPSVSVAPGRTATITCEGDNIGQQIVAWYQQKPGQAPVAVISSDSDRPSGIPERFSGSNSGNTATLTISRVEAGDEADYYCQVWDSGSDHVVFGGGTKVTVL
notes: also called A01-H34A; source: E. coli BL21(DE3), in culture supernatant
- pH 7.4/pH 5.8 ratio of toxin remaining bound (TRF signal) [6]: 1.6

B8: B11 Fab (Fab, V domains shown)
VH: QVQLVQSGAEVKKPGSSVKVSCKASGGTFSSYAISWVRQAPGQGLEWMGGIIPIFGTANYAQKFQGRVTITADESTSTAYMELRSLRSDDTAVYYCARDNLGYCSGGSCYSDYYYYYMDVWGQGTLVTVSS
VL: SYELTQPPSVSVAPGQTATITCGGHNIGSNIVHWYHQKPGQAPELVISHNTNRPSGIPERFSGSNSGSTATLTISRVEAVDEADYYCQVWDSSSEHVVFGGGTKVTVL
- Kd [1]: 1.4 ± 0.1 nM
- koff [1]: 9e-05 s⁻¹
- kon [1]: 69000 M⁻¹ s⁻¹
- koff [2]: 0.00049 s⁻¹
- Kd [3]: 5.7 ± 1.1 nM
- kon [3]: 59000 M⁻¹ s⁻¹

B9: C05 Fab, parental mAb 368_01_C05, with the N-glycosylation site of CDR-L3 removed (C05-NS) (Fab, V domains shown)
VH: QVQLVQSGAEVKKPGSSVKVSCKASGGTFSSYAISWVRQAPGQGLEWMGGIIPIFGTANYAQKFQGRVTITADESTSTAYMELRSLRSDDTAVYYCARDNLGYCSGGSCYSDYYYYYMDVWGQGTLVTVSS
VL: NFMLTQPHSVSESPGKTVTISCTRSSGSIASTYVHWYQQRPGSAPTTVIYEDNQRPSGVPDRFSGSIDSSSNSASLTISGLKTEDEADYYCQSYDSSSGSVVFGGGTKLTVL
- Kd [1]: 4.6 ± 0.47 nM
- koff [1]: 0.00034 s⁻¹
- kon [1]: 76000 M⁻¹ s⁻¹
- koff [2]: 0.00072 s⁻¹
- Kd [3]: 71.2 ± 5.4 nM
- koff [3]: 0.00366 s⁻¹ and 0.00946 s⁻¹
- kon [3]: 51000 M⁻¹ s⁻¹

B10: D11 scFv with C-terminal 6xHis-FLAG extension (scFv, V domains shown)
VH: QVQLVQSGAEVKKPGSSVKVSCKASGGTFSSYAISWVRQAPGQGLEWMGGIIPIFGTANYAQKFQGRVTITADESTSTAYMELRSLRSDDTAVYYCARDNLGYCSGGSCYSDYYYYYMDVWGQGTLVTVSS
VL: NFMLTQPRSVSESPGKTVTISCTRSSGSIGSDYVHWYQQRPGSSPTTVIYEDNQRPSGVPDRFSGSIDSSSNSASLTISGLKTEDEADYYCQSYDRSNHEVVFGGGTKLTVL
notes: also called original D11; source: E. coli BL21(DE3); culture supernatant (DELFIA); purified (HisTrap, SEC)
- pH 7.4/pH 5.8 ratio of toxin remaining bound (TRF signal) [6]: ~1.3
- pH 7.4/pH 5.8 ratio of toxin remaining bound (fold-difference) [6]: ~1.2 fold

B11: G09 Fab (Fab, V domains shown)
VH: QVQLVQSGAEVKKPGSSVKVSCKASGGTFSSYAISWVRQAPGQGLEWMGGIIPIFGTANYAQKFQGRVTITADESTSTAYMELRSLRSDDTAVYYCARDNLGYCSGGSCYSDYYYYYMDVWGQGTLVTVSS
VL: SYELTQPPSVSVAPGRTATITCEGDNIGQQIVHWYRQKSDQAPVVVVYDGSRRPSGIPERFSGSNSGNTATLTISRVEAGDEADYYCQVWDITSDHVVFGGGTQLTVL
- Kd [1]: 1 ± 0.5 nM
- koff [1]: 0.00015 s⁻¹
- kon [1]: 156000 M⁻¹ s⁻¹
- koff [2]: 0.00035 s⁻¹
- Kd [3]: 4.2 ± 2.8 nM
- kon [3]: 71000 M⁻¹ s⁻¹

B12: A01 scFv (scFv, V domains shown)
VH: QVQLVQSGAEVKKPGSSVKVSCKASGGTFSSYAISWVRQAPGQGLEWMGGIIPIFGTANYAQKFQGRVTITADESTSTAYMELRSLRSDDTAVYYCARDNLGYCSGGSCYSDYYYYYMDVWGQGTLVTVSS
VL: SYELTQPPSVSVAPGRTATITCEGDNIGQQIVHWYQQKPGQAPVAVISSDSDRPSGIPERFSGSNSGNTATLTISRVEAGDEADYYCQVWDSGSDHVVFGGGTKVTVL
- Kd [5]: 52.2 nM
- kon [5]: 43200 M⁻¹ s⁻¹

B13: A01 scFv with His95b (CDR-L3) substituted to alanine (scFv, V domains shown)
VH: QVQLVQSGAEVKKPGSSVKVSCKASGGTFSSYAISWVRQAPGQGLEWMGGIIPIFGTANYAQKFQGRVTITADESTSTAYMELRSLRSDDTAVYYCARDNLGYCSGGSCYSDYYYYYMDVWGQGTLVTVSS
VL: SYELTQPPSVSVAPGRTATITCEGDNIGQQIVHWYQQKPGQAPVAVISSDSDRPSGIPERFSGSNSGNTATLTISRVEAGDEADYYCQVWDSGSDAVVFGGGTKVTVL
notes: also called A01-H95bA; source: E. coli BL21(DE3), in culture supernatant
- fold reduction of the pH 7.4/pH 5.8 ratio against the A01 scFv [6]: ~3 fold

B14: D11_Y49A scFv (scFv, V domains shown)
VH: QVQLVQSGAEVKKPGSSVKVSCKASGGTFSSYAISWVRQAPGQGLEWMGGIIPIFGTANYAQKFQGRVTITADESTSTAYMELRSLRSDDTAVYYCARDNLGYCSGGSCYSDYYYYYMDVWGQGTLVTVSS
VL: NFMLTQPRSVSESPGKTVTISCTRSSGSIGSDYVHWYQQRPGSSPTTVIAEDNQRPSGVPDRFSGSIDSSSNSASLTISGLKTEDEADYYCQSYDRSNHEVVFGGGTKLTVL
notes: source: E. coli BL21(DE3)
- Kd [5]: 68.8 nM
- koff [5]: 0.0018 s⁻¹ and 0.00355 s⁻¹
- kon [5]: 26200 M⁻¹ s⁻¹

B15: E01 Fab (Fab, V domains shown)
VH: QVQLVQSGAEVKKPGSSVKVSCKASGGTFSSYAISWVRQAPGQGLEWMGGIIPIFGTANYAQKFQGRVTITADESTSTAYMELRSLRSDDTAVYYCARDNLGYCSGGSCYSDYYYYYMDVWGQGTLVTVSS
VL: NFMLTQPRSVSESPGKTVTISCTRSSGSIGSDYVHWYQQRPGSSPTTVIYEDNRRPSGVPDRFSGSIASSANSASLTISGLRPEDEADYYCQSYDSTTNHVVFGGGTKVTVL
- binding result [4]: binds

B16: A01 scFv with C-terminal 6xHis-FLAG extension (scFv, V domains shown)
VH: QVQLVQSGAEVKKPGSSVKVSCKASGGTFSSYAISWVRQAPGQGLEWMGGIIPIFGTANYAQKFQGRVTITADESTSTAYMELRSLRSDDTAVYYCARDNLGYCSGGSCYSDYYYYYMDVWGQGTLVTVSS
VL: SYELTQPPSVSVAPGRTATITCEGDNIGQQIVHWYQQKPGQAPVAVISSDSDRPSGIPERFSGSNSGNTATLTISRVEAGDEADYYCQVWDSGSDHVVFGGGTKVTVL
notes: also called original A01 scFv; source: E. coli BL21(DE3); culture supernatant (DELFIA); purified (HisTrap, SEC)
- pH 7.4/pH 5.8 ratio of toxin remaining bound (TRF signal) [6]: ~12
- pH 7.4/pH 5.8 ratio of toxin remaining bound (fold-difference) [6]: ~13.4 fold

B17: D11 scFv (scFv, V domains shown)
VH: QVQLVQSGAEVKKPGSSVKVSCKASGGTFSSYAISWVRQAPGQGLEWMGGIIPIFGTANYAQKFQGRVTITADESTSTAYMELRSLRSDDTAVYYCARDNLGYCSGGSCYSDYYYYYMDVWGQGTLVTVSS
VL: NFMLTQPRSVSESPGKTVTISCTRSSGSIGSDYVHWYQQRPGSSPTTVIYEDNQRPSGVPDRFSGSIDSSSNSASLTISGLKTEDEADYYCQSYDRSNHEVVFGGGTKLTVL
- Kd [5]: 44.4 nM
- koff [5]: 0.00177 s⁻¹ and 0.00189 s⁻¹
- kon [5]: 39900 M⁻¹ s⁻¹
